What all share (assay): FACS
Test [1] deals with Frankfurt 1 RBD.
Test [2] has as its target Civet 007-2004 RBD.
For test [3], the target named is A021 RBD.
In test [4] the target is LYRa11 RBD.
In test [5] the target is CS24 RBD.
Test [6] has as its target GD-Pangolin RBD.
Test [7] addresses WIV1 RBD.
Test [8] has as its target SARS-CoV-2 RBD (WT) displayed on the surface of yeast (SARS-CoV-2, UniProt P0DTC2).
For test [9], the target named is SARS-CoV RBD displayed on the surface of yeast (SARS-CoV, UniProt P59594).
For test [10], the target named is SHC014 RBD.
The target of test [11] is BM48-31 RBD.
Test [12] has as its target RaTG13 RBD.
In test [13] the target is Rs4231 RBD.
For test [14], the target named is Pangolin_GX- RBD.

B1: ADG-1 (antibody, V domains shown)
VH: QVQLVESGGGLVQPGGSLRLSCSASGFTFSRFAMHWVRQAPGKGLEYVSAINLNGDSKYYTDSVRGRFTISRDNSKNTLYLQMSSVRPDDTAFYYCVKDGGYYDSSGPGHWGQGTLVTVSS
VL: EIVLTQSPATLSLSPGERATLSCRASENILHYLAWYQQKPGQAPRLVIYDASRRATGIPGRFSGSGAGTDFTLTINSLEPEDFAVYYCQQRANWPQNFGGGTKVEIK
On to B1, for which the Kd in [1] is 0.97 nM; in test [2] it was 0.78 nM; in [3] it was 0.95 nM; in test [4], 0.79 nM; in [5] it was 0.97 nM; in [6], 0.87 nM. Further, the Kd in test [7] came out at 0.68 nM; in test [8] it was 0.73 nM; in test [9], 1.09 nM.

B2: ADG-3 (antibody, V domains shown)
VH: EVQLVESGGGLIQPGGSLRLSCAASGFPFKGTYMTWVRQAPGKGLEWVSIIYSGGDTYYADSVKGRFTISRDNSKNTLFLQMNSLRVEDTAMYYCARDREMAIITERTYGLDVWGQGTMVTVSS
VL: QSVLTQPPSASGTPGQRVTISCSGGSSNIGSNSVNWYQQLPGTAPKLLIYSNSQRPSGVPDRFSGSKSGTSASLAISGLQSEDEADYYCAAWDDSLNTFRYVFGTGTKVTVL
For B2, the Kd in test [1] is 0.96 nM; in test [2], 0.9 nM; in test [3], 0.91 nM; in [10] it was 0.93 nM; in test [11] it was 3.09 nM; in [4] it was 0.92 nM. Moreover, the Kd in [12] was determined as 0.88 nM; in test [5], 1.05 nM; in test [6], 0.68 nM; in test [13], 1.07 nM; in test [7], 0.72 nM; in test [8] it was 0.55 nM. This molecule also came in with a Kd in test [9] of 0.91 nM.

B3: ADG-2 (antibody, V domains shown)
VH: EVQLVESGGGLVKPGGSLRLSCAASGFTFSSYYMNWVRQAPGKGLEWVSSISEDGYSTYYPDSLKGRFTISRDSAKNSLYLQMNSLRADDTAVYYCARDFSGHTAWAGTGFEYWGQGTLVTVSS
VL: QSVLTQPPSVSGAPGQRITISCTGSSSNIGAGYDVHWYQQLPGTAPKLLIYGSSSRNSGVPDRFSGSKSGTSASLAITGLQAEDEADYYCQSYDSSLSVLYTFGTGTKVTVL
In the case of B3, the Kd in test [14] stood at 1.12 nM; in [1], 0.38 nM; in test [2], 0.35 nM; in [3], 0.47 nM; in test [10], 0.33 nM; in [4], 0.47 nM. In addition, the Kd in [5] worked out at 0.45 nM; in [6], 0.24 nM; in test [13], 0.4 nM; in test [7], 0.42 nM; in [8], 0.43 nM; in [9], 0.39 nM.

The values are drawn from publication PMC7963221 (2021).
